Assay results as given in paper PMC2367712 (Nucleic Acids Research, 2008).

Target: the molecule itself
Assay: cross-linking

B1: Lsr2 of M. tuberculosis, recombinant, His-tagged at the C-terminal (natural protein)
chain: not shown
stoichiometry N: 2
